Results taken from the supplement of paper PMC9170038.

System: MS2 coat protein
Assay: apparent KD of MS2 coat protein; higher = weaker reporter binding
Details: Eterna round: R107
In short: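 Designed RNA switches, transcribed on-chip from Illumina sequencing clusters, were titrated with SNAP-549-labelled MS2 coat protein from 0.7 or 1.5 nM to 3 µM in twofold steps. The solution was 100 mM Tris-HCl pH 7.5, 80 mM KCl, 4 mM MgCl2, with constant ligand or without it. Apparent KD is the median over each design's normalised cluster binding-curve fits.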

[1] = input ligand: theophylline 20 uM
[2] = input ligand: theophylline 2 mM
[3] = input ligand: tryptophan 2.4 mM

Sequence | apparent KD of MS2 coat protein (input ligand: arginine 13.2 mM) | apparent KD of MS2 coat protein (input ligand: none) | apparent KD of MS2 coat protein [1] | apparent KD of MS2 coat protein [2] | apparent KD of MS2 coat protein [3]
AUACAUGAGGAUCACCCAUGUAUAGAUGAAGGAGCGACCAGAGGGUCAGGUAGGUCGCAUCACAUGAGGAUCACCCAUGUAUUUU [DOUBLE!!! :-D #10] | 0.0419 µM | 0.064 µM | 0.0678 µM | 0.0644 µM | 0.0437 µM
AUACAUGAGGAUCACCCAUGUCAUACAGAAGGAGCGUCACAUAAGACAGGUAGGUCGCUGAUAAAUGGAUUAUAGUUUAUGAUUA [JR_SSArginiA_Sub016] | 0.0175 µM | 0.0186 µM | 0.0296 µM | 0.0203 µM | 0.0187 µM
AUACAUGAGGAUCACCCAUGUGAUGGCCGGCGAGGACCGGUACGGCCGCCACUCGUGAUCCGUCCUGAAAGCAAAGCUCUCAACA [Esraleri] | 0.095 µM | – | 0.0853 µM | 0.303 µM | –
AUACAUGAGGAUCACCCAUGUUAUAGUGAAGGAGCGACAUUUAGGUCAGGUAGGUCGCACUAUAGUAUUAUAAUUCUUAGUUCUU [JR_ExcArginiA_Sub018] | 0.0147 µM | 0.0184 µM | 0.0279 µM | 0.0218 µM | 0.022 µM
AUACAUGAGGAUCACCCAUGUUAUAGUGAAGGAGCGACGUUUAUGUCAGGUAGGUCGCACUGUUGUUUAAUGAUUCUUGGAUCUU [#21 Exclusion - Arginine A] | 0.0153 µM | 0.0132 µM | 0.0225 µM | 0.0135 µM | 0.0164 µM
AUAUAUACAUGAGGAUCACCCAUGUUAUUUCGAGGACCGGUACGGCCGCCACUCGAUAGAGUAGAAGUAACAUUUGUUAGAUGUA [JR_SSTryptoA_Sub011] | 0.0197 µM | – | 0.0283 µM | 0.022 µM | –
AUAUAUAUGCGAAGGAGCGGGAAAUAUAUAUAUAUAAUCCUAACAUGAGGAUCACCCAUGUCCCAGGUAGGUCGCGCAUAUAUAU [12.A] | 0.0682 µM | 0.074 µM | 0.0885 µM | 0.087 µM | 0.0722 µM
AUAUGAUCAUGUGAUACCAGAAAUGGUAGUCUUCACUGGAUUACAUGAGGAUCACCCAUGUUCCCUUGGCAGCAUAUGAUCAUAU [#03 Exclusion-TheophyllineB] | 0.0317 µM | – | 0.0682 µM | – | 0.0439 µM
AUAUUUAACGGAAGGAGCGCGGAAUAAUAAGUGGGUAAACAUGAGGAUCACCCAUGUAAACCGCAGGUAGGUCGCCGAAUAAUAA [AstrosEXyARgB#4] | 0.071 µM | 0.0894 µM | 0.115 µM | 0.0861 µM | 0.0684 µM
AUAUUUAAUGGAAGGAGCGCGGAUAAUAAAGUGGGUAAACAUGAGGAUCACCCAUGUAAACCGCAGGUAGGUCGCCGAAAUAUAU [AstrosEXyARgB#8] | 0.0566 µM | 0.039 µM | 0.0494 µM | 0.0576 µM | 0.047 µM
AUCACUGUGAAAGAUACCAGCGCCCUACCUAUCUUCUGUUACAUGAGGAUCACCCAUGUUCGCCCUUGGCAGCUUGAGAUGGAUC [theeternabot_exclusion_MS2_Theo_B_11] | 0.0442 µM | – | 0.0751 µM | – | 0.0449 µM
AUCAUGGCCAUCGAUACCAGCUACAUGAGGAUCACCCAUGUAAACGGCCCGGUGAGAUGUAGCCCUUGGCAGCGAAGGGUCGAGG [Inenenatti] | 0.014 µM | 0.0186 µM | 0.0243 µM | 0.0723 µM | 0.0146 µM
AUCCACAGCCGAAGGAGCGCUAUAGGAUGACAUGAGGAUCACCCAUGUGUGUGAUGUGGAUAGCAGGUAGGUCGCGGAGUGGAUU [Exclusion - Arginine B (Freestyle 10)] | 0.073 µM | 0.0295 µM | 0.0925 µM | 0.0291 µM | 0.0263 µM
AUCGUACCUGAGGAUACCAGCAUGUGAUCAUAACAUGAGGAUCACCCAUGUAAUCAGUGAUGCCCUUGGCAGCUUGGUCGGUACA [Same State - Theophylline B (Freestyle 10)] | 0.0348 µM | – | 0.0743 µM | – | 0.0442 µM
AUCGUACCUGAUGAUACCAGCAAGUGAUCAUAACAUGAGGAUCACCCAUGUAAUCAGUGAUGCCCUUGGCAGCAUAGUCGAUACA [Same State - Theophylline B (Freestyle 5)] | 0.0778 µM | – | 0.199 µM | – | 0.166 µM
AUCGUACCUGAUGAUACCAGCAUGUGAUCGUAACAUGAGGAUCACCCAUGUAAUCAGUGAUGCCCUUGGCAGCAUGAUCGGUACA [Same State - Theophylline B (Freestyle 14)] | 0.0792 µM | – | 0.127 µM | – | 0.0949 µM
AUCGUACCUGAUGAUACCAGCAUGUGCUCGUAACAUGAGGAUCACCCAUGUGAUCAGUGAUGCCCUUGGCAGCAUGAUCGGUACA [Same State - Theophylline B (Freestyle 16)] | 0.067 µM | 0.066 µM | 0.0492 µM | 0.0141 µM | 0.0612 µM
